{"source": "the DeepSol protein solubility set"}
{"assay": "soluble on expression in E. coli; label from the status in PepcDB or PDB records"}
{"sequence": "MSEIKQLPTRDEVPTPLTWDLTKIFKDDAAFDVAYNQLIEELNQAESFKGTLGDGAEAFLAALEYVLDVYRKVETLYVYSHLKNDQDTTNTAYQALYARASSLYAQVSEAVSWFDPEVLTLSDEQIWGYFEEQPKLAVYRHYIQNILDERPHVLSMEQEALLAGASEIFGASSNTFSILNNADLEFPTVQNAEGETIQLSHGVYGQLMESVDPSVREAAFKGLYKVYKQFRNTLASTLGAHVKTHNYKAKIRNYDSARAASLASNHIPESVHETLVAVVNKHLPLLHRYVKLRKKLLNVEELHMYDLYAPLLGEAPIRYSYEEAKEKAIEALKPLGEDYLSIVKEAFSSRWIDVIENQGKRSGAYSSGAYDTAPYILMNWHDSLDQLFTLVHEMGHSVHSYYTRNNQPYVYGDYSIFLAEIASTTNENILTEYLLQTETDPKVRAYVLNHYLDGFKGTIFRQTQFAEFEHFIHTEDAKGTPLTSEYLSEYYGELNAKYYGPEVVRDEEISYEWARIPHFYYNYYVYQYATGFSAASALSKHILAGEEGALENYLNYLKAGSSDFPIEVMKKAGVDMTQAAYIEDAMKVFEERLTELEALVEKL", "soluble on expression in E. coli": "not soluble"}
{"sequence": "MSEILVLNCGSSSVKFALINPHTSQSLVTGLAENIATKNCKVVFKAEHKIVKYLENGSYKDVFEMLKDFLVENKHLEKIVAIGHRVVHGGQYFSKSVLINADSLEKIKACIALAPLHNPAHIEGIRFCQQIFPELPQVAVFDTAFHQTMPSYIAEYAIPYELTHKHNIRKYGAHGTSHKYVSEQAAKILTQQKANVIVAHLGNGCSITAVVDGKSIDTSMGLTPLDGLVMGTRSGCIDPSIFAYISDNLGWSVTEITNMLNKQSGLLGICGHNDMREVSQLAAKGDSLAKLAIEIFSHRVAKFVASYMIYFNKLDALVFTGGIGENAANIRKNIISKLANLGFMIDHQKNSNSETFINSKNSHNIMVIATNEELMIAQETQNLI", "soluble on expression in E. coli": "soluble"}
{"sequence": "MSEKLDLTRFEKKMVIRNIEEKDIDKIIDLQKDCFPGMEPWKREHLISHLEHFPEGQFCAEFEGEIIGSCSSLLINFDEYDDRHTWQDITDDGYITNHNPDGLNMYGIEVMVHPKYRRMKIGHRLYEARKDLARRLSLKSIIIGGRIPNYHKYAEEMTAREYVEQVTRHQIYDPVLSFQLMNGFTLMRINPNYLPDDTASIKY", "soluble on expression in E. coli": "not soluble"}
{"sequence": "MSEKLVLSSGKCFLHEVLCRREEKEYRQNRANLRRGADTTTEVYAFPYVYPQLPQEATTQERLVLMRVAALAAEFGNIPAVGSDTPAKSLGRWAYEVSRQRMLDRQQQVAFNPKKLDVVGERLAYLHTQDFEEAVRAVSRLMSIASSLSNVPAFDYIALYSLFSYWGNGISEKSQRVRMRVLQDYYGSFGSLIE", "soluble on expression in E. coli": "not soluble"}
{"sequence": "MSELDQLRQEAEQLKSQIREARKSANDTTLATVASNLEPIGRIQMRTRRTLRGHLAKIYAMHWASDSRNLVSASQDGKLIVWDSYTTNKVHAIPLRSSWVMTCAYAPSGSFVACGGLDNICSIYSLKTREGNVRVSRELPGHTGYLSCCRFLDDNQIVTSSGDMTCALWDIETGQQCTAFTGHTGDVMSLSLSPDFRTFISGACDASAKLWDIRDGMCKQTFPGHESDINAVAFFPSGNAFATGSDDATCRLFDIRADQELAMYSHDNIICGITSVAFSKSGRLLFAGYDDFNCNVWDSMRQERAGVLAGHDNRVSCLGVTEDGMAVCTGSWDSFLKIWN", "soluble on expression in E. coli": "soluble"}
{"sequence": "MSELSFAQLLEESFAATPRLGDVVKGTVVAIQKGYVIVDTGFKSESSIPAEEFINAQGELEVQIGDQVDVVLKAVEDGFGETVVSRGDAKRNEAWIALEKAFEEQATVIGFVNGKVKGGFTVELNGVRAFLPGSLVDTRPVRDSLNLEGKELEFKVIKLDQKRNNVVVSRRAVIESENSQDRDEVLANLVEGSVITGTVKNLTDYGAFVDLGGVDGLLHITDMAWKRVKHPSEVVAVGQEVTVKVLKFDKEKTRVSLGLKQLGQDPWAAIAHNHPVNSKLTGKVTNLTDYGCFVEILDGVEGLVHVSEMDWTNKNIHPSKVVSVGDVVEVMVLEVDEERRRISLGLKQCKANPWEHFAATHNKNDKVTGKIKSITDFGIFIGLEGGIDGLVHLSDISWNVTGEEAVRNYKKGDEVEAVVLQVDAAKERISLGIKQLESDPFTNFVDSTKKGAILTGKVVDVDTKGVKVELEGGVEAFIRANEATRERVEDITTVISVGDSIEAKYTGIDRKSRLVNLSVRAKDEAEESAALAQVNKQDVEMPNAMTAAFQAAKGELEHHHHHH", "soluble on expression in E. coli": "soluble"}
{"sequence": "MSELTKAQQYNFNKLQKKIRRNTGNAIADYNMIEDGDRIMVCLSGGKDSFTMLDILMSLKKSAPISFDLIAVNLDQKQPGFPAHILPEYLEKLGVEYKIVEEDTYSIVQDKIPEGKTTCSLCSRLRRGILYRTAKELGATKIALGHHRDDILETMFLNMFYGGKLKGMPPKLVSDNGEHVVIRPLAYCREKDIIKYADMRDYPIIPCNLCGSQPNMQRQNVKQMLNTWDKQFPGRIETMFTAMQNVVPSHLADFNTFDFKSINRDSGVINGGDIGFDKEEMPTLPVDADDAVAEFDPSLKLDVVNVD", "soluble on expression in E. coli": "not soluble"}
{"sequence": "MSELWYTEKQTKNFGITMKVNKTLHTEQTEFQHLEMVETEEFGNMLFLDGMVMTSEKDEFVYHEMVAHVPLFTHPNPEHVLVVGGGDGGVIREILKHPSVKKATLVDIDGKVIEYSKKFLPSIAGKLDDPRVDVQVDDGFMHIAKSENQYDVIMVDSTEPVGPAVNLFTKGFYAGIAKALKEDGIFVAQTDNPWFTPELITNVQRDVKEIFPITKLYTANIPTYPSGLWTFTIGSKKYDPLAVEDSRFFDIETKYYTKDIHKAAFVLPKFVSDLIKLEHHHHHH", "soluble on expression in E. coli": "soluble"}
{"sequence": "MSEMQMDCALDLMRRLPPQQIEKNLIDLIDLAPDLCEDLLSSVDQPLKIAKDKEHGKDYLLCDYNRDGDSYRSPWSNSYYPPLEDGQMPSERLRKLEIEANYAFDQYREMYYEGGVSSVYLWDLDHGFAAVILIKKAGDGSKMIRGCWDSIHVVEVQEKTTGRTAHYKLTSTAMLWLQTNKQGSGTMNLGGSLTRQQEQDANVSESSPHIANIGKMVEEMENKIRNTLNEIYFGKTKDIVNGLRSTQSLADQRQQAAMKQDLAAAILRRNVKPESN", "soluble on expression in E. coli": "not soluble"}
{"sequence": "MSEPIDILIAGAGIGGLSCALALHQAGIGKVTLLESSSEIRPLGVGINIQPAAVEALAELGLGPALAATAIPTHELRYIDQSGATVWSEPRGVEAGNAYPQYSIHRGELQMILLAAVRERLGQQAVRTGLGVERIEERDGRVLIGARDGHGKPQALGADVLVGADGIHSAVRAHLHPDQRPLSHGGITMWRGVTEFDRFLDGKTMIVANDEHWSRLVAYPISARHAAEGKSLVNWVCMVPSAAVGQLDNEADWNRDGRLEDVLPFFADWDLGWFDIRDLLTRNQLILQYPMVDRDPLPHWGRGRITLLGDAAHLMYPMGANGASQAILDGIELAAALARNADVAAALREYEEARRPTANKIILANREREKEEWAAASRPKTEKSAALEAITGSYRNQVERPRLEHHHHHH", "soluble on expression in E. coli": "soluble"}
{"sequence": "MSEPIPPFRYAPIVCSEQSTIVAEFVPEASGVREAGYQSEAELEAAFITQLQGQAYEYLSITSEAALLANLRRQLEKLNKVTLSDAEWEGFFSTCIAGAHDGIVQKTARIQEDHVQVLKRDDGTIKNMCLLDKGNIHNNILQVMNQYAVEGARGNRYDVTVLVNGLPMVHVELKRRGVDIREAFNQINRYQRDSFWAGSGLFDYVQLFVISNGTLTKYYSNTVRAGHVEEQSNKRSKSKTSNSFSFAIWWADAKNQPITELTSFTKTFFAKHSLLNVLTKYCVFNANRKLLVMRPYQIVAAERILQRIVTATHQQQLGTVAAGGYIWHTTGSGKTLTSFKVAQLACGLGVIDKVLFVVDRKDLDYQTMREYESFEKGAANSNTSTAVLQRQLEDSDVRIIITTIQKLSRFVAKHKQHPVYGAHVAVIFDECHRSQFGDMHTEITRAFQRYHLFGFTGTPIFAENAGSTQNPMRRTTQQTFGDTLHTYTIVDAINDKTVLPFRIDYINTIKSQPNINDKQVAAIDTERALLAPERIRQIVSYIREHFDQKTKRASIYRHEGQRLQGFNALLATASIDAAKRYYAELMAQQKDLPEAQRLKVGLIYSVAANEGDGDELLAEEEFETERLDQDARNFLEAAIQDYNALFGTSFDTSADKFQNYYKDVSERLKKRKLDILIVVNMFLTGFDATTLNTLWVDKRLKAHGLIQAYSRTNRILNSVKSYGNIVSFRNLEQETNEALALFGNKDAKGIVLLRPYAEYYKEYEERVGELVAAFPLGKVIVGEAAQKAFITLFGSILRLKNILTAFDDFAGQEVLTEREFQDYQSLYLNLYAEFRSASAAEKESINDDVVFEIELIKQVEINVDFILLLVEQYVKKKGTGEDKDIRATIERAIHSSPSLRNKKELIEQFVDAVSMKATVDAQWQAFVAVKQSQELEGIIAEENLNAEATREFIANAFRDGSIPATGTAITKILPPVSRFSKNNGHAAKKQTVLDKLATFFERYFGLV", "soluble on expression in E. coli": "soluble"}
